Test results published in US5576288A, “Fibroblast growth factor conjugates” (The Salk Institute For Biological Studies, priority 1994, dated 1996).

Tests used:
[1] = test system: BHK cells; experiment: competition of cytotoxicity by preincubation with basic FGF or NGF; format: cell-based, baby hamster; conditions: BHK cells preincubated one hour; basic FGF-SAP 10^-10 M; up to thousand-fold excess; FIG. 4
Experimental: Basic FGF-SAP was used at a concentration of 10^-10 M basic FGF-AP and C: preincubation with equimolar free of basic FGF; D: 10-fold excess of free basic FGF; E: 100-fold excess of basic FGF; F: 1000-fold excess of basic FGF; G: equimolar incubation with equimolar free NGF; H: 10-fold molar excess; I: 100-fold molar excess, J: […].
Specificity of the cytotoxic agent was examined in competition experiments in an effort to establish that the mitotoxic activity of the conjugate is receptor specific. BHK cells were preincubated for one hour with various levels of basic FGF or nerve growth factor (NGF) prior to treatment of the cells with the cytotoxic agent. […] In contrast, a thousand-fold excess of NGF has no effect.

[2] = test system: BHK cells; experiment: cytotoxic activity on BHK cells (cell count after two days); format: cell-based, baby hamster; conditions: highest dose tested 10^-8 M, FIG. 3
Experimental: The protein synthesis inhibition activity of the SAP protein was compared to the protein synthesis inhibition activity of the basic FGF-SAP conjugate in in vitro assays of protein synthesis as described in Siehn et al., Blood, 72:756-765 (1988), which is incorporated herein by reference. The cytotoxic activity of the conjugate was tested on baby hamster kidney fibroblasts (ATCC Accession No. CRL 6281). BHK cells were plated in 24 well plates at a concentration of 5000 cells/ml and incubated overnight at 37° C., 5% CO2. The following morning, HEPES-buffered DMEM and F-12 media (1:1) plus 5% FCS was aspirated from the wells and replaced with media alone or with media containing the conjugate, basic FGF or saporin. Two days later, the cells were washed twice, trypsinized and cell number determined with a Coulter Particle Counter (Coulter Electronics, Hialeah, Fla.).

Row | Substance | effect of preincubation on cytotoxic activity of basic FGF-SAP [1] | toxic effect on BHK cell proliferation [2]
1 | NGF: nerve growth factor used as competition control | no effect | –
2 | SAP: type-1 ribosome-inactivating protein isolated from the seeds of Saponaria officinalis | – | no toxic effect
